Patent US20230212549A1 (3B PHARMACEUTICALS, published 2023)
“And” between values parts separate entries of the source, which are not always exact repeats. Equal entries are not always repeated. Numbered stars: 1 amine (or outer) side, 2 acyl side, 3 side chain; on linkers, the order of the positions; unused ones are H or OH. Bridge positions count the residues as written; N and C are the ends. Square brackets hold non-standard residues; d marks the D form. * marks the point of attachment. 1Nal = N[C@@H](Cc1cccc2ccccc12)C(=O)O; mXylylene = c1cc(C[*:1])cc(C[*:2])c1; Hyp = O=C(O)[C@@H]1C[C@@H](O)CN1; PentylNH‑urea = CCCCCNC(=O)*; Octanoyl = CCCCCCCC(=O)*; Hexanoyl = CCCCCC(=O)*

Legend:
[1] = target: T1, fibroblast activation protein (FAP) on FAP-expressing human WI-38 fibroblasts (human, UniProt Q12884 1-760); assay: competitive FACS, WI-38 cells, vs Cy5 tracer m3; B = pIC50 7.1-8.0
T1 construct: also called human FAP

[2] = target: Recombinant human FAP (R&D systems, #3715-SE) (human, UniProt Q12884 26-760); assay: cell-based or functional assay

B1: Hex-[Cys(3MeBn)-Pro-Pro-Thr-Gln-Trp-Cys]-NH2 (peptide)
peptide: Hexanoyl-CPPTQWC-NH2
modifications: linker 1-7 via mXylylene
SMILES: CCCCCC(=O)N[C@H]1CSCc2cccc(c2)CSC[C@@H](C(N)=O)NC(=O)[C@H](Cc2c[nH]c3ccccc23)NC(=O)[C@H](CCC(N)=O)NC(=O)[C@H]([C@@H](C)O)NC(=O)[C@@H]2CCCN2C(=O)[C@@H]2CCCN2C1=O
notes: also called 3BP-3408
With B1 the “pIC50 Category (FACS)” value [1] was 7.1 pIC50 and 8 pIC50 and the “pIC50 Category (Activity)” value [2] was 7.1 pIC50 and 8 pIC50.

B2: Hex-[Cys(3MeBn)-Pro-Pro-Thr-Glu-Phe-Cys]-OH (peptide)
peptide: Hexanoyl-CPPTEFC-OH
modifications: linker 1-7 via mXylylene
SMILES: CCCCCC(=O)N[C@H]1CSCc2cccc(c2)CSC[C@@H](C(=O)O)NC(=O)[C@H](Cc2ccccc2)NC(=O)[C@H](CCC(=O)O)NC(=O)[C@H]([C@@H](C)O)NC(=O)[C@@H]2CCCN2C(=O)[C@@H]2CCCN2C1=O
notes: also called 3BP-3370
With B2 the “pIC50 Category (FACS)” value [1] was 7.1 pIC50 and 8 pIC50 and the “pIC50 Category (Activity)” value [2] was 7.1 pIC50 and 8 pIC50.

B3: Hex-[Cys(3MeBn)-Pro-Pro-Thr-Glu-1Ni-Cys]-NH2 (peptide)
peptide: Hexanoyl-CPPTE[1Nal]C-NH2
modifications: linker 1-7 via mXylylene
SMILES: CCCCCC(=O)N[C@H]1CSCc2cccc(c2)CSC[C@@H](C(N)=O)NC(=O)[C@H](Cc2cccc3ccccc23)NC(=O)[C@H](CCC(=O)O)NC(=O)[C@H]([C@@H](C)O)NC(=O)[C@@H]2CCCN2C(=O)[C@@H]2CCCN2C1=O
notes: also called 3BP-3361
In the case of B3, the “pIC50 Category (FACS)” value [1] is reported as 7.1 pIC50 and 8 pIC50 and the “pIC50 Category (Activity)” value [2] is reported as 7.1 pIC50 and 8 pIC50.

B4: Hex-[Cys(3MeBn)-Pro-Hyp-Thr-Glu-Phe-Cys]-NH2 (peptide)
peptide: Hexanoyl-CP[Hyp]TEFC-NH2
modifications: linker 1-7 via mXylylene
SMILES: CCCCCC(=O)N[C@H]1CSCc2cccc(c2)CSC[C@@H](C(N)=O)NC(=O)[C@H](Cc2ccccc2)NC(=O)[C@H](CCC(=O)O)NC(=O)[C@H]([C@@H](C)O)NC(=O)[C@@H]2C[C@@H](O)CN2C(=O)[C@@H]2CCCN2C1=O
notes: also called 3BP-3366
With B4 the “pIC50 Category (FACS)” value [1] was 7.1 pIC50 and 8 pIC50 and the “pIC50 Category (Activity)” value [2] was 7.1 pIC50 and 8 pIC50.

B5: Ac-Met-[Cys(3MeBn)-Pro-Pro-Thr-Glu-Phe-Cys]-Ala-His-Phe-Arg-Asp-NH2 (peptide)
peptide: Ac-MCPPTEFCAHFRD-NH2
modifications: linker 2-8 via mXylylene
SMILES: CSCC[C@H](NC(C)=O)C(=O)N[C@H]1CSCc2cccc(c2)CSC[C@@H](C(=O)N[C@@H](C)C(=O)N[C@@H](Cc2c[nH]cn2)C(=O)N[C@@H](Cc2ccccc2)C(=O)N[C@@H](CCCNC(=N)N)C(=O)N[C@@H](CC(=O)O)C(N)=O)NC(=O)[C@H](Cc2ccccc2)NC(=O)[C@H](CCC(=O)O)NC(=O)[C@H]([C@@H](C)O)NC(=O)[C@@H]2CCCN2C(=O)[C@@H]2CCCN2C1=O
notes: also called 3BP-3194
With B5 the “pIC50 Category (FACS)” value [1] was 7.1 pIC50 and 8 pIC50 and the “pIC50 Category (Activity)” value [2] was 7.1 pIC50 and 8 pIC50.

B6: Oct-[Cys(3MeBn)-Pro-Pro-Thr-Gln-Phe-Cys]-Asp-NH2 (peptide)
peptide: Octanoyl-CPPTQFCD-NH2
modifications: linker 1-7 via mXylylene
SMILES: CCCCCCCC(=O)N[C@H]1CSCc2cccc(c2)CSC[C@@H](C(=O)N[C@@H](CC(=O)O)C(N)=O)NC(=O)[C@H](Cc2ccccc2)NC(=O)[C@H](CCC(N)=O)NC(=O)[C@H]([C@@H](C)O)NC(=O)[C@@H]2CCCN2C(=O)[C@@H]2CCCN2C1=O
notes: also called 3BP-3417
With B6 the “pIC50 Category (FACS)” value [1] was 7.1 pIC50 and 8 pIC50 and the “pIC50 Category (Activity)” value [2] was 7.1 pIC50 and 8 pIC50.

B7: PentylNH-urea-[Cys(3MeBn)-Pro-Pro-Thr-Gln-Phe-Cys]-Asp-NH2 (peptide)
peptide: {PentylNH‑urea}-CPPTQFCD-NH2
modifications: linker 1-7 via mXylylene
SMILES: CCCCCNC(=O)N[C@H]1CSCc2cccc(c2)CSC[C@@H](C(=O)N[C@@H](CC(=O)O)C(N)=O)NC(=O)[C@H](Cc2ccccc2)NC(=O)[C@H](CCC(N)=O)NC(=O)[C@H]([C@@H](C)O)NC(=O)[C@@H]2CCCN2C(=O)[C@@H]2CCCN2C1=O
notes: also called 3BP-3425
B7 was tested, and the “pIC50 Category (FACS)” value [1] was 7.1 pIC50 and 8 pIC50 and the “pIC50 Category (Activity)” value [2] was > 8 pIC50.

In the case of Hexanoyl-CPPTQFCD-NH2 (linker 1-7 via tMeBn(DOTA-NH), also called 3BP-3556) [Hex-[Cys(tMeBn(DOTA-NH))-Pro-Pro-Thr-Gln-Phe-Cys]-Asp-NH2], the “pIC50 Category (FACS)” value [1] is reported as 7.1 pIC50 and 8 pIC50 and the “pIC50 Category (Activity)” value [2] is reported as 7.1 pIC50 and 8 pIC50.
